Changes are numbered by the printed parent chain. Names may count otherwise.
T1: human MCAM (antigen of the BLI kinetics in Example 7) (human, UniProt P43121 24-559, limits assumed)
T1 chain: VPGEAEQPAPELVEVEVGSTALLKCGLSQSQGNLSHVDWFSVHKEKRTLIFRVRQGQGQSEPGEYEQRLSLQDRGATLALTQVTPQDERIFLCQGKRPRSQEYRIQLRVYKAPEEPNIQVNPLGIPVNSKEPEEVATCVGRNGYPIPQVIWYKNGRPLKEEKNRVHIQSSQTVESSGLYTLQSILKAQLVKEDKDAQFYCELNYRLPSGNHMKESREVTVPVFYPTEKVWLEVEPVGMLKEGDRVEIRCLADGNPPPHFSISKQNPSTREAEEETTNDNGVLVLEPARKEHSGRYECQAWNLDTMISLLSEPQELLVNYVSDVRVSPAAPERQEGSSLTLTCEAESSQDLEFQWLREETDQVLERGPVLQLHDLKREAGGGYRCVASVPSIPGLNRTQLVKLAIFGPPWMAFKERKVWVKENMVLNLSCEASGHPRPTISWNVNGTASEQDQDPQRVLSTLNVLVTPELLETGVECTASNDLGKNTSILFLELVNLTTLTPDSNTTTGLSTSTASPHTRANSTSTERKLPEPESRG

T2: human MCAM domain 1 (amino acids 19-129) hFc (human, UniProt P43121 19-129)
T2 construct: One of the various MCAMhFc domains captured on anti-human IgG Fc biosensors; also called MCAMhFc domain; not shown: human IgG Fc (hFc)
T2 sequence: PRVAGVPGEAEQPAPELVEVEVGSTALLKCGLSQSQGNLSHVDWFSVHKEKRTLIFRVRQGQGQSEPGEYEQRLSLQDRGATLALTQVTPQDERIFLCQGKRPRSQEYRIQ

T3: human MCAM domain 2 (amino acids 139-242) hFc (human, UniProt P43121 139-242)
T3 construct: One of the various MCAMhFc domains captured on anti-human IgG Fc biosensors; also called MCAMhFc domain; not shown: human IgG Fc (hFc)
T3 sequence: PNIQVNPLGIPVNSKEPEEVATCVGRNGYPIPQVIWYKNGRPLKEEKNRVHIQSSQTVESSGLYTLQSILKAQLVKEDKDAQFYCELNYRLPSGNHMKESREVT

T4: combination of human MCAM domains 1 and 2 (amino acids 19-242) hFc (human, UniProt P43121 19-242)
T4 construct: One of the various MCAMhFc domains captured on anti-human IgG Fc biosensors; also called combination of domains 1 and 2; MCAMhFc domain; not shown: human IgG Fc (hFc)
T4 sequence: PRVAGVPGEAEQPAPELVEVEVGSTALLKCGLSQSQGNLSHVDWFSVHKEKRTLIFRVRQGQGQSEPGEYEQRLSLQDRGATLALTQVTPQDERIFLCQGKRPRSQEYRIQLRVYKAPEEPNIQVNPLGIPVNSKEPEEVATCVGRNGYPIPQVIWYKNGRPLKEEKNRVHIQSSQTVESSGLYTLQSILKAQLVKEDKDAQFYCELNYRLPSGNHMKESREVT

T5: human MCAM, full length, expressed on transfected cells (human, UniProt P43121 24-646)
T5 construct: also called CD146; MUC18
T5 chain: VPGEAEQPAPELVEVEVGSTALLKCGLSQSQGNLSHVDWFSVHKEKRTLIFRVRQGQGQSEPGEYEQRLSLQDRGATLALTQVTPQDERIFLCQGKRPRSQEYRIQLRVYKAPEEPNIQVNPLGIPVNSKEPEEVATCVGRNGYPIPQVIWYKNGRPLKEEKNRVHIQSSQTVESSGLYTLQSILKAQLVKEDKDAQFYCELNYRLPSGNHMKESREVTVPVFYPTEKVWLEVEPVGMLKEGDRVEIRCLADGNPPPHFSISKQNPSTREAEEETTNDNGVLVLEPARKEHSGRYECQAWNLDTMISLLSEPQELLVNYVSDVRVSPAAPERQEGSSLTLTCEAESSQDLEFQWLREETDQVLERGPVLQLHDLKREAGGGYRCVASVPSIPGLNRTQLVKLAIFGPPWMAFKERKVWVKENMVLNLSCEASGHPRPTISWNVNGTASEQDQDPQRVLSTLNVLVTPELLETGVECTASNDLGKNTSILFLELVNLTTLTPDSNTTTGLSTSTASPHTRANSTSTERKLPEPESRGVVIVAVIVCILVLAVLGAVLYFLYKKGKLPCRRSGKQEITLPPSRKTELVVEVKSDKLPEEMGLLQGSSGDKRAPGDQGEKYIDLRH

B1: Chimeric 1749 (antibody, V domains shown)
VH: DVKLVESGGDLVKPGGSLKLSCAASGFTFSSYIMSWVRQTPEKRLEWVATISSGGSSTYYPDSVKGRFTISRDNAKNTLYLQMSSLKSEDTAMYYCTRDDDYDVKVFAYWGQGTLVTVSA
VL: DIVMSQSPSSLAVSAGEKVTMNCKSSRSLLNSRIRKNYLAWYQQKPGQSPKLLIYWASTRESGVPDRFTGSGSGTDFTLTISSVQAEDLAVYYCKQSYNLLTFGAGTKLELK
notes: also called ch1749
B2: Human 1749VH3VL3 (Hu1749VHv3 and Hu1749VLv3) (antibody, V domains shown)
VH: B1 VH with D1E, D10G, K13Q, K19R, A120S
VL: DIVMTQSPSSLAVSLGERVTINCKSSRSLLNSRIRKNYLAWYQQKPGQSPKLLIYWASTRESGVPDRFSGSGSGTDFTLTISSLQAEDVAVYYCKQSYNLLTFGQGTKVEIKR
notes: also called hu1749VH3VL3; hu1749H3L3
B3: human MCAM I141A single mutant displayed on mammalian cells (receptor)
chain: T5 chain with I118A
B4: human MCAM D216A single mutant displayed on mammalian cells (receptor)
chain: T5 chain with D193A
B5: mouse anti-human MCAM monoclonal antibody clone 1174.1.3 (antibody, V domains shown)
VH: QIQLVQSGPELKKPGETVKISCKASGYTFTNYGMNWVKQAPGKGLKWMGWINTYTGEPTYADDFKGRFALSLETSASTAYLQINNLKNEDMATYFCARYRYNKYERAMDYWGQGTSVTVSS
VL: DIVLTQSPASLAVSLGQRATISCRASKSVSTSGYSYMYWYQQKPGQPPKLLIYLASNLESGVPARFSGSGSGTDFTLNIHPVEEEDAATYYCQHSRELPFTFGSGTKLEIK
notes: Mouse hybridoma monoclonal antibody
B6: mouse anti-human MCAM monoclonal antibody clone 1414.1.2 (antibody, V domains shown)
VH: EIQLQQTGPELVKPGASVKISCKASGYSFTDYIMLWVKQSHGKSLEWIGNINPYSGSSGYNLKFKGKATLTVDKSSSTAYMQLNSLTSEDSAVYYCARGKDFAMDYWGQGTSVTVSS
VL: B1 VL with N22S, R27Q, R33S, I34T, Y38F, L100R, L101Y, A105G, L111I
notes: as for B5
B7: rat anti-human MCAM monoclonal antibody clone 2120.4.19 (antibody, V domains shown)
VH: QVQLKESGPGLVQPSQTLSLTCTVSGFSLTSNGVSWVRQPPGKGLEWIAAISSGGTTYYNSAFKSRLSISRNTSKSQVLLKMNSLQTEDTAMYFCARRYGYGWYFDFWGPGTMVTVSS
VL: DIRMTQSPSLLSASVGDRVTLNCKASQNIYNSLAWYQQKLGEGPKVLIFNANSLQTGIPSRFSGSGSGTDFTLTISSLQPEDFATYFCQQFYSGYTFGAGTKLELK
notes: Rat hybridoma monoclonal antibody
B8: rat anti-human MCAM monoclonal antibody clone 2107.4.10 (antibody, V domains shown)
VH: QVQLKESGPGLVQSSQTLSLTCTVSGFSLTSNGVSWVRQPPGKGLEWIAAISSGGSTYYNSAFKSRLSISRNTSKSQVLLKMNSLQTEDTGMYFCARHRPFYFDYWGQGVMVTVSS
VL: DIQVTQSPSLLSASVGDRVTLNCKGSQNIYKSLAWFRLKRGEAPKLLIYDANSLQTGIPSRFSGSGSGTDFTLTITSLQPEDVATYFCQQYYSGYTFGAGTKLELK
notes: as for B7
B9: mouse anti-human MCAM monoclonal antibody clone 1415.1.1 (antibody, V domains shown)
VH: QVQLQQPGAELVQPGAPVKLSCKASGYIFTSYWMNWVKQRPGRGLEWIGRIDPSDSKIHYNQKFKDKATLTVDRSSSTAYIQLGSLTSEDSAVYYCAKEGGLRRGDYAMDYWGQGTSVTVSS
VL: DIVMTQSPATLSVTPGDRVSLSCRASQSISDYLHWYQQKSHESPRLLIKYASQSISGIPSRFSGSGSGSDFTLSINSVEPEDVGVYYCQNGHNFPRTFGGGTKLEIK
notes: as for B5

Target: T1, human MCAM (antigen of the BLI kinetics …)
Experiment: BLI, ForteBio Octet QK, apparent KD
Source text: (§1) Apparent ka, apparent kd and apparent KD are binding kinetic parameters obtained using ForteBio assay formats.

| Kd [nM] | Binder |
| --- | --- |
| 0.226 | B1 |
| 0.221 | B2 |

Target: T1, human MCAM (antigen of the BLI kinetics …)
Experiment: BLI, ForteBio Octet QK, apparent ka
Source text: as §1

| kon [M⁻¹ s⁻¹] | Binder |
| --- | --- |
| 1.94e+06 | B1 |
| 1.99e+06 | B2 |

Target: T1, human MCAM (antigen of the BLI kinetics …)
Experiment: BLI, ForteBio Octet QK, apparent kd
Source text: as §1

| koff [s⁻¹] | Binder |
| --- | --- |
| 0.000439 | B1 |
| 0.00044 | B2 |

Target: laminin α-4 (UniProt Q16363 25-1823)
Sequence (Q16363 25-1823): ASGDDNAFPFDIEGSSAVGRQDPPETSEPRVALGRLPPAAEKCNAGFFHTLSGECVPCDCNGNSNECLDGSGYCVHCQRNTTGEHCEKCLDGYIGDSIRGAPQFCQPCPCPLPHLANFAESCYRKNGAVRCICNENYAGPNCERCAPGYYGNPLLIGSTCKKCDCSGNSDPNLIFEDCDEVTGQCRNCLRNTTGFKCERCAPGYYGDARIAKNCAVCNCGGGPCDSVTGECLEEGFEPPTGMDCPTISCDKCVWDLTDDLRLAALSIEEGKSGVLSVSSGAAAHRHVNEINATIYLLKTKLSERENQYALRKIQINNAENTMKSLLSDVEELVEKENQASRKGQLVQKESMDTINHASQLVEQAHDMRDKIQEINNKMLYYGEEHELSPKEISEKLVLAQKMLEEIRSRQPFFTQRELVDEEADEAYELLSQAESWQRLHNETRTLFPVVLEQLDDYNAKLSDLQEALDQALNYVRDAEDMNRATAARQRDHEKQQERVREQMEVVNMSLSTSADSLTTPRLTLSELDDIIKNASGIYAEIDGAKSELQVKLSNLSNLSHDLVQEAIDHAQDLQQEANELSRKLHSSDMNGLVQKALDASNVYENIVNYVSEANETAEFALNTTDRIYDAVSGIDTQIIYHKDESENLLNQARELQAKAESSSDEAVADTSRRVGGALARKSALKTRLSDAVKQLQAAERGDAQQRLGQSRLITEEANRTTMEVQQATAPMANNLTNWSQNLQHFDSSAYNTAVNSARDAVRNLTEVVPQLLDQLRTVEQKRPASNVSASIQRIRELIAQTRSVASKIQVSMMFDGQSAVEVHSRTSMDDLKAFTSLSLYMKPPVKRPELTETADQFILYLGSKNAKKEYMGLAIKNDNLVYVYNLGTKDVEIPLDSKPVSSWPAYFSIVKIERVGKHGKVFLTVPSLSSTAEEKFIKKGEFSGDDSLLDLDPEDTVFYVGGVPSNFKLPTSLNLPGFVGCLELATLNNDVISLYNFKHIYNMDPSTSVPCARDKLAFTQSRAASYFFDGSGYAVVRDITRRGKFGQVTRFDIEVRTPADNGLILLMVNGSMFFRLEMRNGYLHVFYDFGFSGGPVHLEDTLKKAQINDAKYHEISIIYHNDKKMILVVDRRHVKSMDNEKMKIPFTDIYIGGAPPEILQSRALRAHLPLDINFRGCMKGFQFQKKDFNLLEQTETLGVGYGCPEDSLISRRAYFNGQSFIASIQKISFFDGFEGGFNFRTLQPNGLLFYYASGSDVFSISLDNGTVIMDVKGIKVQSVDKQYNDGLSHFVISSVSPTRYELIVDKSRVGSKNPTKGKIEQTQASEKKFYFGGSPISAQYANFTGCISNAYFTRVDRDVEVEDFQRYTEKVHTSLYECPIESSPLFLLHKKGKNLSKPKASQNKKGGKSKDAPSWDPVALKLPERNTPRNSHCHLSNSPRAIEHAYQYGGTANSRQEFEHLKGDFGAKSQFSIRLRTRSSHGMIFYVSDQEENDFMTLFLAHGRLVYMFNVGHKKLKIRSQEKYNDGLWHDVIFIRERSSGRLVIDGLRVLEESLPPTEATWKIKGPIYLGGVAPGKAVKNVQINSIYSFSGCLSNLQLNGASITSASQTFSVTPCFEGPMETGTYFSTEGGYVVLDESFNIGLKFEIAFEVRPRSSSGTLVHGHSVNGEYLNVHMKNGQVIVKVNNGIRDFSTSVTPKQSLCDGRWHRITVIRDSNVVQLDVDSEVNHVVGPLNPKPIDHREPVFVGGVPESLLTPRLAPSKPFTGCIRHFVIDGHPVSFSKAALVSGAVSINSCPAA
Experiment: FACS on mammalian cells displaying the mutant
Source text: Twenty point mutants based on the structure information and shotgun mutagenesis information were designed and generated.

| binding result | Binder |
| --- | --- |
| no binding | B3 |
| no binding | B4 |

Target: T2, human MCAM domain 1 (amino acids …)
Experiment: ForteBio BLI, MCAMhFc domains on anti-human IgG Fc biosensors
Source text: (§2) The following protocol was used: ForteBio anti-human IgG Fc biosensors were used to immobilize various MCAMhFc domains including full length MCAMhFc protein on to biosensor surface. […] After loading these samples into a black 96 well plate, the Octet Red was programmed as follows: 60 seconds for baseline #1; 180 seconds for loading various domains; 60 seconds for baseline #2; 180 seconds for association of antibody to domain; and 240 seconds for dissociation of antibody from domain.
(§3) 1. MCAMhFc final concentration @ 5 ug/ml [0329] […] 3. ForteBio anti-human IgG Fc Capture (AHC) biosensors for kinetics experiments, cat #18-5060 [0331] 4. Block 96 well plate from Greiner Bio-one, cat #655209 [0332] 5. ForteBio Octet Red machine [0333] 6. Fresh tissue culture medium, DMEM with 20% FCS, was used as buffer for dilution The results from these analyses are as follows.

| binding result | Binder |
| --- | --- |
| no binding (tested: 5 ug/ml) | B5 |
| no binding (tested: 5 ug/ml) | B6 |
| no binding (tested: 5 ug/ml) | B7 |
| no binding (tested: 5 ug/ml) | B8 |
| no binding (tested: 5 ug/ml) | B9 |

Target: T3, human MCAM domain 2 (amino acids …)
Experiment: as above
Source text: as §2, §3

| binding result | Binder |
| --- | --- |
| no binding (tested: 5 ug/ml) | B5 |
| no binding (tested: 5 ug/ml) | B6 |
| no binding (tested: 5 ug/ml) | B9 |

Target: T4, combination of human MCAM domains 1 and …
Experiment: as above
Source text: as §2, §3

| binding result | Binder |
| --- | --- |
| no binding (tested: 5 ug/ml) | B5 |
| no binding (tested: 5 ug/ml) | B6 |
| no binding (tested: 5 ug/ml) | B9 |

Target: T5, human MCAM, full length, expressed on …
Experiment: flow cytometry, blocking of recombinant human laminin 411 (20 ug/ml) binding to CHO cells expressing human MCAM
Description: The 87 independent mouse fusion clones and 26 independent rat fusion clones described in Example 1 above as being capable of (i) binding to human MCAM, and (ii) blocking the interaction between human MCAM and the α-4 chain of laminin were further characterized as follows. First, IC50 quantitation for the ability of the monoclonal antibody to block the binding of human MCAM to the α-4 chain of laminin was determined as follows. CHO cells expressing human MCAM were incubated with an anti-human MCAM antibody (at various concentrations) for 30 minutes at 4 degrees Celsius. […] Unbound laminin was then washed away, and the laminin bound to the surface of the cells was detected with fluorescently labeled anti-laminin antibodies. After washing, the amount of laminin bound to the surface was detected by flow cytometry, and IC50s were calculated based on the mean fluorescent intensity.
Amino acid and nucleic acid sequences of the heavy and light chains of these antibodies, and their hypervariable regions, are provided in SEQ ID NOs:29-92. […] As such, each of these specific monoclonal antibodies was very capable of binding to human MCAM and inhibiting the interaction of cell-expressed human MCAM with its α-4 laminin binding ligand.

| IC50 [µg/mL] | Binder |
| --- | --- |
| 0.469 | B5 |
| 0.431 | B6 |
| 0.888 | B7 |
| 0.29 | B8 |
| 0.307 | B9 |
